Consider 1 molecule from patent publication US20240124607A1 (Merck Sharp & Dohme, published 2024).

Assay [1] deals with T1, Human CEACAM6 (human, UniProt P40199 35-320, limits assumed).
T1 sequence (looked up): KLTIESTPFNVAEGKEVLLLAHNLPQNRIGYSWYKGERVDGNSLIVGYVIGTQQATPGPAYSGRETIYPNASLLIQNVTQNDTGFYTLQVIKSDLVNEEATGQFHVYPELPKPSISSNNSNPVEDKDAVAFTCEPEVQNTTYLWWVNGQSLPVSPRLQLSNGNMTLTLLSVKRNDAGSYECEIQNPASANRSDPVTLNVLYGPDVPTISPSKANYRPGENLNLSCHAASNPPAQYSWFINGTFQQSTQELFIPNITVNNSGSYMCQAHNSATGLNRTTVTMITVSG
In words: SPR, 37C, pH 7.4. On the procedure: (§1) To determine the affinity and cross-reactivity of CEACAM5 TriNKET molecules, AB0411, AB0466, or AB0621 TriNKETs were captured using an anti-human Fc capture antibody (Cytiva, #BR100839) immobilized onto a Biacore CM5 standard surface sensor chip following manufacturer instructions. Human or cynomolgus CEACAM5 were titrated over captured AB0411, AB0466, and AB0621 as 2-fold serial dilutions starting from 300 nM. Association was monitored for 300 sec and dissociation was monitored for 600 sec. The assay was run at 37° C. at pH 7.4 and 6.0. The surface of the CM5 chip was regenerated with 10 mM glycine pH 1.5 for 20 sec at 100 μL/min.
Binding to human and cynomolgus CEACAM1, 6, and 8 was assessed by SPR using the same protocol as for CEACAM5 but using up to 600 and 1200 nM for titration of each protein. There were no detectable binding signals at these concentrations for AB0621. In contrast, reproducible weak binding signals were detected for AB0411 and AB0466, but these two TriNKETs also bound to different epitope(s) on the N-terminus of CEACAM5. Typical weak binding sensorgrams for AB0411 and AB0466 against human CEACAM1 and 6 indicated weak but notable signals compared to AB0621. […]

The target in assay [2] is T2, Human CEACAM5 (E398) (human, UniProt P06731 35-685, limits assumed).
T2 construct: also called hCEACAM5
T2 sequence: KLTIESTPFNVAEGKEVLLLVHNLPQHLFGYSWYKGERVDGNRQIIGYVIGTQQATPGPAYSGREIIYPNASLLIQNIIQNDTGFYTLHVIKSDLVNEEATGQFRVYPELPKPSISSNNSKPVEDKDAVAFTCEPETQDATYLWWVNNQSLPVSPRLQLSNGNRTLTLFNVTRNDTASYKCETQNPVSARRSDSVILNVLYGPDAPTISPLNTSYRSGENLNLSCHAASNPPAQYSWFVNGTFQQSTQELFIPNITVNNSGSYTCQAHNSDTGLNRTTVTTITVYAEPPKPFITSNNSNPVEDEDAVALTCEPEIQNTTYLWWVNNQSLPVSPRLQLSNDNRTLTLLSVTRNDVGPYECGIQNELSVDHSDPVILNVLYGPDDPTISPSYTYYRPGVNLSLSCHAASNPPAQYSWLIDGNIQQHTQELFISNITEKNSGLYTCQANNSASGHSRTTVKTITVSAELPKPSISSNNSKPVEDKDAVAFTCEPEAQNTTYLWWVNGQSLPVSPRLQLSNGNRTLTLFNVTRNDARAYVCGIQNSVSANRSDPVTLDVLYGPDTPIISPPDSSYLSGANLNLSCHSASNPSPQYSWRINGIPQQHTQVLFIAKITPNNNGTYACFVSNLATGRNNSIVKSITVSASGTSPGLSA
As to the kind of experiment: SPR, anti-hFc capture, 37C, pH 7.4. On the procedure:
as §1
In general terms: SPR reads the build-up and loss of mass on a sensor chip optically.

Assay [3] concerns the target T3, soluble mouse Fc-human NKG2D dimer (human, UniProt P26718 78-216, limits assumed).
T3 construct: also called NKG2D-mFc; human NKG2D fused to a mouse Fc
T3 sequence (looked up): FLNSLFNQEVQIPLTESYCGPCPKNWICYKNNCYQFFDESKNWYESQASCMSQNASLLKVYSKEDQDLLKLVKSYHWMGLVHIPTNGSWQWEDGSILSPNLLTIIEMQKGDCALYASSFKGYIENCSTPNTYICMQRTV
In words: SPR, NKG2D-mFc captured, 37C, pH 7.4. How it is done:
(§2) Binding to NKG2D was assessed by SPR using a mouse Fc capture kit (Cytiva, #BR100838) immobilized onto a CM5 chip. Human and cynomolgus NKG2D fused to a mouse Fc were captured and AB0411, AB0466, or AB0621 was titrated from 600 nM.

The target in assay [4] is T4, Cyno NKG2D-mFc (cynomolgus monkey, UniProt P61252 78-216, limits assumed).
T4 construct: also called cynomolgus NKG2D fused to a mouse Fc
T4 sequence (looked up): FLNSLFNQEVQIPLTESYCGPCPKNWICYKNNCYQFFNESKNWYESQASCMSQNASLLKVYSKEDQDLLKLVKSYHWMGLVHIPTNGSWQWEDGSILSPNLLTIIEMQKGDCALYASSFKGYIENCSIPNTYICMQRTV
As to the kind of experiment: SPR, NKG2D-mFc captured, 37C, pH 7.4. On the procedure:
as §2

The target of assay [5] is T5, human CEACAM8 on Ba/F3 cells (human, UniProt P31997 35-320).
T5 construct: whole, on cells
T5 sequence (looked up): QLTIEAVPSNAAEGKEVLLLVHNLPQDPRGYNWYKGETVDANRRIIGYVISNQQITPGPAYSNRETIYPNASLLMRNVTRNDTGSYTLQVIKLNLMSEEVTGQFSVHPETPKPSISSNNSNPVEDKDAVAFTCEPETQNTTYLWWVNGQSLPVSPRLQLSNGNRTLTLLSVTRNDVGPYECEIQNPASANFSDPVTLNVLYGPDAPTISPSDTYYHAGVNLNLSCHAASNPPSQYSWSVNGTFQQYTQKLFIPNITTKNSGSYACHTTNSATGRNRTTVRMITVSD
In words: flow cytometry on Ba/F3 cells expressing human CEACAM8, fold over background (FOB), 5-fold dilutions from 1600 nM. On the procedure:
To examine the binding specificity of the TriNKETs to CEACAM5 compared to other CEACAM family members, Ba/F3 cells were engineered to express one of human CEACAM1, CEACAM6, CEACAM8, or cynomolgus CEACAM5. CEACAM5 TriNKETs were evaluated by flow cytometry starting at 1600 nM followed by 7 5-fold dilutions.

B1: AB0621 F3' CEACAM5 TriNKET (bispecific antibody, human IgG1, kappa)
chain: DIVMTQSPDSLAVSLGERATINCKSSHSLLYGNFQNNYLAWYQQKPGQPPKLLIYWASTRESGVPDRFSGSGSGTDFTLTISSLQAEDVAVYYCQQYYSYPYTFGCGTKLEIKGGGGSGGGGSGGGGSGGGGSQVQLVQSGAEVKKPGASVKVSCKASGYTFTAYTIHWVRQAPGQCLEWMGYINPSSGYTEYNQKFKDRTTLTADTSISTAYMELSRLRSDDTAVYYCTREGGLLWFDYWGQGTLVTVSSGSDKTHTCPPCPAPELLGGPSVFLFPPKPKDTLMISRTPEVTCVVVDVSHEDPEVKFNWYVDGVEVHNAKTKPREEQYNSTYRVVSVLTVLHQDWLNGKEYKCKVSNKALPAPIEKTISKAKGQPREPRVYTLPPCRDELTKNQVSLTCLVKGFYPSDIAVEWESNGQPENNYKTTPPVLVSDGSFTLYSKLTVDKSRWQQGNVFSCSVMHEALHNHYTQKSLSLSPG
heavy: EVQLVESGGGLVKPGGSLRLSCAASGFTFSSYSMNWVRQAPGKGLEWVSSISSSSSYIYYADSVKGRFTISRDNAKNSLYLQMNSLRAEDTAVYYCARGAPIGAAAGWFDPWGQGTLVTVSSASTKGPSVFPLAPSSKSTSGGTAALGCLVKDYFPEPVTVSWNSGALTSGVHTFPAVLQSSGLYSLSSVVTVPSSSLGTQTYICNVNHKPSNTKVDKKVEPKSCDKTHTCPPCPAPELLGGPSVFLFPPKPKDTLMISRTPEVTCVVVDVSHEDPEVKFNWYVDGVEVHNAKTKPREEQYNSTYRVVSVLTVLHQDWLNGKEYKCKVSNKALPAPIEKTISKAKGQPREPQVCTLPPSRDELTENQVSLTCLVKGFYPSDIAVEWESNGQPENNYKTTPPVLDSDGSFFLYSWLTVDKSRWQQGNVFSCSVMHEALHNHYTQKSLSLSPG
light: DIQMTQSPSSVSASVGDRVTITCRASQGISSWLAWYQQKPGKAPKLLIYAASSLQSGVPSRFSGSGSGTDFTLTISSLQPEDFATYYCQQGVSFPRTFGGGTKVEIKRTVAAPSVFIFPPSDEQLKSGTASVVCLLNNFYPREAKVQWKVDNALQSGNSQESVTEQDSKDSTYSLSSTLTLSKADYEKHKVYACEVTHQGLSSPVTKSFNRGEC
What is called Kd is the free concentration of one partner at which half of the binding sites on the other are occupied at equilibrium, for simple one-to-one binding. A higher Kd goes with weaker binding. Broadly, the kon is a measure of how fast the partners come together. A higher kon goes with fast association. By koff is commonly meant the first-order rate constant of dissociation. Low values mean slow dissociation, high ones fast dissociation. Turning to B1, the binding result is “no binding (tested: up to 600 and 1200 nM)” in assay [1]; “no binding (tested: 1600 nM)” in assay [5]. Further, the equilibrium dissociation constant (Kd) in assay [2] is 17 nM; in assay [3] it was 570 nM; in assay [4], 520 nM. The kon in assay [2] was found to be 100000 M⁻¹ s⁻¹; in assay [3], 320000 M⁻¹ s⁻¹; in assay [4], 320000 M⁻¹ s⁻¹. The koff in assay [3] was determined as 0.14 s⁻¹; in assay [4], 0.12 s⁻¹.
